Here are results for 2 molecules from patent US6426205 (MOUNT SINAI HOSPITAL, dated 2002).

The chains are these.
B2: Cdc34 (enzyme, budding yeast, UniProt P14682 1-295, looked up)
chain: MSSRKSTASSLLLRQYRELTDPKKAIPSFHIELEDDSNIFTWNIGVMVLNEDSIYHGGFFKAQMRFPEDFPFSPPQFRFTPAIYHPNVYRDGRLCISILHQSGDPMTDEPDAETWSPVQTVESVLISIVSLLEDPNINSPANVDAAVDYRKNPEQYKQRVKMEVERSKQDIPKGFIMPTSESAYISQSKLDEPESNKDMADNFWYDSDLDDDENGSVILQDDDYDDGNNHIPFEDDDVYNYNDNDDDDERIEFEDDDDDDDDSIDNDSVMDRKQPHKAEDESEDVEDVERVSKKI
notes: Endogenous protein in yeast lysates, detected with anti-Cdc34 antibodies; also called endogenous Cdc34

One test addresses T1, Skp1 (budding yeast).
T1 construct: Endogenous protein in yeast lysates, detected with anti-Skp1 antibodies; also called endogenous Skp1
Description: anti-MYC immunoprecipitation from yeast lysate, immunoblot. (In western blotting, separated proteins are transferred to a membrane and probed.)

The target in the test “Cdc34” is B2. The test is described as above.
In test [1] the target is T2, Cdc53 with deletion of residues 448-748 (MYC-tagged) (Saccharomyces cerevisiae, UniProt Q12018 1-815).
T2 construct: The limits of the text are used here; also called Cdc53 internal deletion
T2 sequence: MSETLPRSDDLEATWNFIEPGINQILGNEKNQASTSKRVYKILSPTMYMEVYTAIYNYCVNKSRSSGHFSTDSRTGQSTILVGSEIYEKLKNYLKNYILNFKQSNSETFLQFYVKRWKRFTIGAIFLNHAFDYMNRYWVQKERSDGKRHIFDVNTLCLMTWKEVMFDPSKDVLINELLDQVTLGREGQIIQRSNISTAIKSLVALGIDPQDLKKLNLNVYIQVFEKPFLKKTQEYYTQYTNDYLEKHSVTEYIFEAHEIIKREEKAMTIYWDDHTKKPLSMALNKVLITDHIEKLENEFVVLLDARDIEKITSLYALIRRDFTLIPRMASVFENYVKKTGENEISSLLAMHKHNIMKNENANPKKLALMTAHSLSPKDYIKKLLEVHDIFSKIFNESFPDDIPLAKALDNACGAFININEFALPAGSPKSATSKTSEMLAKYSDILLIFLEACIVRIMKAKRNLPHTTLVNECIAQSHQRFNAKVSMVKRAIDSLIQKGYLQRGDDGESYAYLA
Described as above.

A further test deals with T3, MYC-tagged Cdc53 (Saccharomyces cerevisiae, UniProt Q12018 1-815).
T3 construct: Expressed from the wild type promoter on a CEN plasmid in yeast and immunoprecipitated with 9E10 anti-MYC; also called Cdc53^M; Cdc53^MYC6
T3 sequence: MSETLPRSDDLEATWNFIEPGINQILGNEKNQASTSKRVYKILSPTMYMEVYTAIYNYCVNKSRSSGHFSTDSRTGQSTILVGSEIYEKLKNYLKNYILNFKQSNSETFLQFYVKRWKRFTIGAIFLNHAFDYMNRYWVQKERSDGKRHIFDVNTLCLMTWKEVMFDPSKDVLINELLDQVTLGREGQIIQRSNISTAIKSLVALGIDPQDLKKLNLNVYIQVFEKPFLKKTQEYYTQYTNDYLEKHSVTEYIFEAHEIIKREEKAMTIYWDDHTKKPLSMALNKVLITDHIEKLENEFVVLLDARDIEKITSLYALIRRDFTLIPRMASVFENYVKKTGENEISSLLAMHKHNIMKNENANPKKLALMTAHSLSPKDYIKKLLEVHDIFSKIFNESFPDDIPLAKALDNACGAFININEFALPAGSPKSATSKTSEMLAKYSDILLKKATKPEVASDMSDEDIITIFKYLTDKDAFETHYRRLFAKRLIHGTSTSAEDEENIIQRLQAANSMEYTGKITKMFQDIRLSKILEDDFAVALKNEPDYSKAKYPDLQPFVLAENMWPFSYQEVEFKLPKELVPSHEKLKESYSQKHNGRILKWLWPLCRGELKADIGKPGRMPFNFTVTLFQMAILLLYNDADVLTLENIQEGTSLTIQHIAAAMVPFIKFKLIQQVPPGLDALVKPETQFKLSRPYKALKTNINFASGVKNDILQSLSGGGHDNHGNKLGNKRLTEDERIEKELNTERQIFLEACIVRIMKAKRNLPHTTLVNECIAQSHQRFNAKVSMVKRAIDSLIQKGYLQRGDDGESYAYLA
Described as above.

Test [2] addresses T4, Cdc53^Δ9-280 (MYC-tagged) (Saccharomyces cerevisiae, UniProt Q12018 1-815).
T4 construct: Deletion built with natural and engineered restriction sites; also called CDC53^MΔ9-280; pMT1850
T4 sequence: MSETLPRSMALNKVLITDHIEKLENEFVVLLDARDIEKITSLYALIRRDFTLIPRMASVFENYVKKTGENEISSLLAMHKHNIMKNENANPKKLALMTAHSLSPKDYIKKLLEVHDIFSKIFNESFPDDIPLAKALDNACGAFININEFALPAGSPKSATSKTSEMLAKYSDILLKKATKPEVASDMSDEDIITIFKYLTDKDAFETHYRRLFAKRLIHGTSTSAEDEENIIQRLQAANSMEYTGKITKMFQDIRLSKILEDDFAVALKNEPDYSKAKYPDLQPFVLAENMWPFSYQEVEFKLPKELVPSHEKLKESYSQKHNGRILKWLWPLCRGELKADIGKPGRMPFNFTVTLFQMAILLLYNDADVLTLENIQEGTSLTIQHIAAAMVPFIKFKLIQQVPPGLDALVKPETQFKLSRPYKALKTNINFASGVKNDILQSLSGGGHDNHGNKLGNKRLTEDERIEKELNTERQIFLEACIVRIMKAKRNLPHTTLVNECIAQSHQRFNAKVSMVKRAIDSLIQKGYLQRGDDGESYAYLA
The description is as above.

The target of a further test is T5, Cdc53-Y48W, M49E^MYC6 (Saccharomyces cerevisiae, UniProt Q12018 1-815).
T5 construct: also called mutant Cdc53; pMT1939-1943
T5 sequence: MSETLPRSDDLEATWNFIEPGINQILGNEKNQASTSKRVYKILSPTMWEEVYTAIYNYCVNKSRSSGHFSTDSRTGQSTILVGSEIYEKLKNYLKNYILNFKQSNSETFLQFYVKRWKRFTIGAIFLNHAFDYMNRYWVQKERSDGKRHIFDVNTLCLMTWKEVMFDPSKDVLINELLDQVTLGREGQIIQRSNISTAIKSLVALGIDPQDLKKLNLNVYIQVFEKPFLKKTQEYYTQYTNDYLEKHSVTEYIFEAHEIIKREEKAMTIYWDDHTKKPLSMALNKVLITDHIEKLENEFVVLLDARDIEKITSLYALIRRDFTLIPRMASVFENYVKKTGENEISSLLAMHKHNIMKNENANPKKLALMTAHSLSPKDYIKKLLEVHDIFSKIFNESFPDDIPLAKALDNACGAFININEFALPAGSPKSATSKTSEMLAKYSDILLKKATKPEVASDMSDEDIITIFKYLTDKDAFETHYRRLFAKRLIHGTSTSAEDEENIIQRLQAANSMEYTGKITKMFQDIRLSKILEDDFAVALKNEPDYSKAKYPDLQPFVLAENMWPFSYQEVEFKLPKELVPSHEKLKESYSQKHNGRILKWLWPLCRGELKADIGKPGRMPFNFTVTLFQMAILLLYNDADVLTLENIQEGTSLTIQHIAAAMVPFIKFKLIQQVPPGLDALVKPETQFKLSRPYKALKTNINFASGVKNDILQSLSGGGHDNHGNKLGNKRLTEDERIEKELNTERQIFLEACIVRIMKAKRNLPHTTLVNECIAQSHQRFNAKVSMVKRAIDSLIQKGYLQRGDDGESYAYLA
Description: anti-MYC immunoprecipitation from yeast lysate, western blot.

T1 sequence (chain, as listed by the source limits assumed): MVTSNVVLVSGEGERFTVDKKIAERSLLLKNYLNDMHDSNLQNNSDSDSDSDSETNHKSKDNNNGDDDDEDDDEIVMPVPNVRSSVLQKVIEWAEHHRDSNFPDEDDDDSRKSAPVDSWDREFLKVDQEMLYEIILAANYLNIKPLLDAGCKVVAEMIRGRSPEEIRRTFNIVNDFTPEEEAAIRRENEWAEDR
Description for Cdc53-Y48W, M49E^MYC6: This powder was thawed, spun to remove cellular debris, and cleared by spinning in ultracentrifuge. Protein concentration in the lysate was adjusted to 24 mg/ml in a volume of 1.25 ml lysis buffer+10 mM N-ethyl maleimide, for a final mass of 30 mg protein for each strain. 25 µl of a 50% slurry in lysis buffer of protein-A beads (Pierce) cross-linked with dimethyl suberimidate to the anti-MYC monoclonal antibody 9E10 was added to each lysate, incubated with gentle rocking at 4° C. for several hours, washed several times with lysis buffer, aspirated, resuspended in protein sample buffer, and run on two 10% polyacrylamide gels. One gel was transferred to polyvinylidene fluoride membrane and western blotted with anti-MYC, anti-Cdc34, and anti-Skp1 antibodies (FIG. 12A).

B1: Cdc53 with IVRIMK (residues 755-760) mutated to polyalanine (MYC-tagged) (other, not shown: small tags and cut ends)
chain: MSETLPRSDDLEATWNFIEPGINQILGNEKNQASTSKRVYKILSPTMYMEVYTAIYNYCVNKSRSSGHFSTDSRTGQSTILVGSEIYEKLKNYLKNYILNFKQSNSETFLQFYVKRWKRFTIGAIFLNHAFDYMNRYWVQKERSDGKRHIFDVNTLCLMTWKEVMFDPSKDVLINELLDQVTLGREGQIIQRSNISTAIKSLVALGIDPQDLKKLNLNVYIQVFEKPFLKKTQEYYTQYTNDYLEKHSVTEYIFEAHEIIKREEKAMTIYWDDHTKKPLSMALNKVLITDHIEKLENEFVVLLDARDIEKITSLYALIRRDFTLIPRMASVFENYVKKTGENEISSLLAMHKHNIMKNENANPKKLALMTAHSLSPKDYIKKLLEVHDIFSKIFNESFPDDIPLAKALDNACGAFININEFALPAGSPKSATSKTSEMLAKYSDILLKKATKPEVASDMSDEDIITIFKYLTDKDAFETHYRRLFAKRLIHGTSTSAEDEENIIQRLQAANSMEYTGKITKMFQDIRLSKILEDDFAVALKNEPDYSKAKYPDLQPFVLAENMWPFSYQEVEFKLPKELVPSHEKLKESYSQKHNGRILKWLWPLCRGELKADIGKPGRMPFNFTVTLFQMAILLLYNDADVLTLENIQEGTSLTIQHIAAAMVPFIKFKLIQQVPPGLDALVKPETQFKLSRPYKALKTNINFASGVKNDILQSLSGGGHDNHGNKLGNKRLTEDERIEKELNTERQIFLEACAAAAAAAKRNLPHTTLVNECIAQSHQRFNAKVSMVKRAIDSLIQKGYLQRGDDGESYAYLA
notes: also called CDC53^MIVRIMK; pMT1859
In the case of B1, the binding result in the test with Skp1 and with Cdc34 was “binds” in each case.

With B2, the binding result in test [1] is on record as “no binding”; with MYC-tagged Cdc53, “binds”; in test [2] it was “binds”; in the test with Cdc53-Y48W, M49E^MYC6 it was “binds”.
